# Test results reported in the supplement of paper PMC10567573.
# ± gives the standard deviation.
# Assay: protein stability index of a GFP-peptide fusion (GPS, HEK-293T) (PSI 1-6); higher = more stable
# Details: c terminus: a fixed tail appended
# 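Note: 24-mer peptide tiles fused after GFP, lentivirally expressed, FACS-sorted into six equal bins by GFP/DsRed ratio, decoded by Illumina sequencing, PSI is the read-weighted mean bin number.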
Sequence,protein stability index (treatment: DMSO),"protein stability index (treatment: MLN4924 1 uM, 8 h)"
PQRPRSAPRTSSCAERLQSEEQVS [FCHO1],4.85 ± 0.39,4.9 ± 0.24
ELEKLAEKNIILEEKIQVLQQQNE [MTUS2],4.63 ± 0.32,4.53 ± 0.22
LASLQDGAAESPYGHPAGIDYKTT [RAB40B],4.4 ± 0.31,4.39 ± 0.15
DWYQKQTPTSPECDYSQYFKTIEE [KRT15],3.86 ± 0.23,3.97 ± 0.26
TAPSGGQWGAEPEGSCYQTFRQYC [RNF208],2.75 ± 0.29,2.89 ± 0.18
AEHMKRQRHPRLRPQSAQSSFPPS [AUP1],4.13 ± 0.12,4.43 ± 0.25
TDQPPLVQAIFSGDPEEIRMLIHK [ANKRD44],3.31 ± 0.28,3.48 ± 0.3
CFVKDNPQKSYFIRLYGLQAGRLL [WAS],2.49 ± 0.58,2.22 ± 0.45
LPHGVNFQDAIFPDTQENRRMFSS [CCDC3],3.91 ± 0.18,3.92 ± 0.097
RENKRMADSLASKVTRLKSLALDI [BET1L],2.63 ± 0.12,2.7 ± 0.31
NICENTEGAIAVHCKAGLGRTGTL [CDC14A],3.13 ± 0.22,3.21 ± 0.3
PLKAQNDLDISRIKRGNTTLESTD [P2RY14],5 ± 0.11,5.24 ± 0.24
EEVRQLLETMARNEVIADINCKGR [OSBPL1A],3.16 ± 0.33,3.01 ± 0.46
LPSNLLKKFRSSTSSSLGDKSEYL [KCNA4],3.11 ± 0.084,3.23 ± 0.37
YGSFHQQYWLDGKIIAVGVIDILP [ATE1],3.36 ± 0.39,3.16 ± 0.67
TMGLRHLPVVNAVGEIVGIITRHN [CLCN6],2.47 ± 0.19,2.41 ± 0.12
LSQPQQGEAMLANFKPRGYSECIV [GAN],3.13 ± 0.21,3.02 ± 0.37
DHVHILDTETFTWSQPITTGKAPS [KLHDC2],3.82 ± 0.3,3.84 ± 0.4
AFEPEALGNLVEGLDFHRFYFENL [CAMK2A],2.51 ± 0.18,2.61 ± 0.3
SLKLIKRLYVDKSLNLSTEFISST [SERPINB5],2.38 ± 0.26,2.11 ± 0.15
VNPLHVDSTWLLLRRIRAESGTKG [SLC25A39],2.83 ± 0.3,2.74 ± 0.33
SMAAVPTLELCHDELFADLFNSNH [CEBPD],3.57 ± 0.3,3.6 ± 0.26
KQYVLLSILLCLLASGLVVFFLFP [TMEM106C],2.43 ± 0.28,2.56 ± 0.44

Sequence,protein stability index (treatment: DMSO),"protein stability index (treatment: MLN4924 1 uM, 8 h)"
SQLDSGVSQAVEGPEELSRSSSES [RIPK4],5.5 ± 0.087,5.54 ± 0.26
WIGLFLVATGSQQSLAQPLPGNTT,2.93 ± 0.55,2.96 ± 0.35
EALRALQEGLWLDRGTRVVFIDFS [PKD2L1],2.3 ± 0.72,2.34 ± 0.35
MEHLIYGEPRKLLTQDWVQENYLE [MAGEA10],3.41 ± 0.35,3.47 ± 0.3
VDSEQLRRDCDALMAGCIQEARER [CDKN1A],4.82 ± 0.15,4.7 ± 0.28
ESQLPEEWENNRESLIVFMEQVHR [CPXM2],3.79 ± 0.33,3.82 ± 0.49
QDLLDVIRIKLDPCHPTVKNWRNF [EDARADD],2.27 ± 0.75,2.35 ± 0.34
DHMREAGDVCYADVYRDGTGVVEF [SRSF1],3.15 ± 0.28,3.18 ± 0.23
AATLLLALLSCCLTVVSFYQVAAL [TNFSF13B],3.24 ± 0.23,3.31 ± 0.32
DPGHCFAESRELPVRCAGDWLPRG [ALG2],3.1 ± 0.38,3.05 ± 0.25
KGKTAVDTVFRFDPRYNKWMQVAS [KLHL13],2.4 ± 0.3,2.94 ± 0.5
IPRGFPTIDMGPQLKVVERTRTAT [PTPRD],3.92 ± 0.24,3.68 ± 0.37
NLHRVAAHELGHSLGLSHSTDIGA [MMP1],3.48 ± 0.33,3.57 ± 0.33
AMKITQEPQGLGYWEAWRHHCQGK [SPACA3],3.05 ± 0.18,3.17 ± 0.29
THWAVGVCRDSVSRKGELTPLPET [TRIM39],2.96 ± 0.19,2.95 ± 0.23
SPAGELPKTVQQPTESEPVTINIQ [MATN2],5.29 ± 0.31,5.24 ± 0.38
DITDDCICDLARSIDFNKDGHIDI [PPEF2],3.87 ± 0.19,4.05 ± 0.39
SWYPKANNQDFIPFTKKRVGVDRA [ZC2HC1C],3.07 ± 0.33,2.94 ± 0.15
SQQQNMMQDYVRTGTYQRAILQNH [CARM1],3.21 ± 0.27,3.12 ± 0.23
GADYPVDGLPDLGHAQDLMDGLPP [CTNNB1],4.95 ± 0.24,5.17 ± 0.068
RLDIVKYLVENNANISIANKYDNT [FEM1B],2.5 ± 0.17,2.64 ± 0.4
AKLAADDFRTKYETELSLRQLVEA [KRT36],3.73 ± 0.33,3.78 ± 0.061
DPNSQVGACIVNSENKIVGIGYNG [DCTD],4.56 ± 0.15,4.56 ± 0.48

Sequence,protein stability index (treatment: DMSO),"protein stability index (treatment: MLN4924 1 uM, 8 h)"
EEGFMTAELAGVIKRLWKDSGVQA [GNAI1],3.19 ± 0.49,3.53 ± 0.58
YSLGGVRSLNVASGSGKSGGYGFG [KRT71],2.72 ± 0.34,3.29 ± 0.49
MVANILNNEAFMNQEITKAFHVRR [RHOBTB2],2.53 ± 0.27,2.5 ± 0.27
IASFIRGPNPSKLIQQFLTLRPDQ [CDS2],2.24 ± 0.17,2.33 ± 0.22
LGWGPTALRDVPFSALYWFNYELV [SLC25A39],2.9 ± 0.54,2.61 ± 0.41
IELQGVPNDEVHPLLGVKGDGKSK [RBBP5],5.14 ± 0.19,4.96 ± 0.21
GKMVEEVDGRATQKLIVNLKPEKS [PTPRD],4.69 ± 0.13,4.66 ± 0.29
AKRCTVIGGSGFLGQHMVEQLLAR [NSDHL],2.1 ± 0.2,2.21 ± 0.41
ERGTPGLPGPKGDDGKLGATGPMG [SCARA5],4.92 ± 0.34,4.95 ± 0.15
KMVSAEISENRKRQWPTKSQTDRG [SDE2],4.52 ± 0.069,4.41 ± 0.2
ERWLKELRDHADSNIVIMLVGNKS [RAB11A],2.32 ± 0.29,2.26 ± 0.34
KQDVLGPSTTPPAHSSSNTIRSGI [SASS6],4.66 ± 0.34,4.63 ± 0.22
MSFPHFGHPYRGASQFLASASSST [IRX6],3.25 ± 0.21,3.13 ± 0.25
EEEMNALRGQVGGEINVEMDAAPG [KRT17],5.45 ± 0.34,5.53 ± 0.13
EKNRKDAEDWFFSKTEELNREVAT [KRT17],4.5 ± 0.14,4.71 ± 0.27
CSNLVKTRRRAVGWWKRLFTLKEE [ARL6IP1],2.42 ± 0.28,2.6 ± 0.21
LSSNREAHQHRDKMQQSKNQVVSS [CSNK1G3],4.72 ± 0.21,4.81 ± 0.37
KFLAFSGPHPKSKIENGYPLHAPE [CDC14A],3.23 ± 0.15,3.16 ± 0.29
NEYVAIKLEPIKSRAPQLHLEYRF [CSNK1G1],2.31 ± 0.3,2.53 ± 0.36
FIIGELHPDDRPKLNKPPETLITT [CYB5A],2.73 ± 0.35,2.91 ± 0.4
SQEYQILLDVKTRLEQEIATYRRL [KRT16],2.71 ± 0.34,2.88 ± 0.44
DIKRLLVNFMYLQSLLQPKSSSVD [SMG5],2.97 ± 0.54,3.08 ± 0.51
FDDFVTNLIEKSASLDNGGCALTT [SOAT1],3.66 ± 0.27,3.62 ± 0.16

Sequence,protein stability index (treatment: DMSO),"protein stability index (treatment: MLN4924 1 uM, 8 h)"
SILFGFWTSFICDTYIVLAWISKI [SMIM2],3.15 ± 0.34,3.31 ± 0.25
SFFVPRPTPSTPRPTPQDWLHRRA [ADAMTS4],3.4 ± 0.21,3.4 ± 0.084
AAGSPRSPGPLPGARGLHLPDAGS [ISL2],4.6 ± 0.35,4.72 ± 0.16
PATEEQEAASSSSTLVEVTLGEVP [MAGEA3],5.52 ± 0.17,5.51 ± 0.17
LQCRSPPRLHGAKAILDAEPGPRP [TBC1D10A],4.46 ± 0.12,4.48 ± 0.12
LTLQVLVAGNPQDTRLRYSFFVPR [ADAMTS4],3.13 ± 0.4,3.19 ± 0.44
LSSDRVANSSSEAPFPNVSTSLLT [ADAMTSL2],4.17 ± 0.21,4.14 ± 0.29
DLKDDGNMMKVLRGHQNWVYSCAF [WSB1],2.3 ± 0.29,1.87 ± 0.22
DDMPIGRNVLELNDVRQSANYTCV [PTPRD],3.72 ± 0.28,3.77 ± 0.44
EELRKFSSLCYKQRIKSQERETEA [MOG],4.47 ± 0.28,4.22 ± 0.076
EKKDTITNDSLSLKPSWFDFGFAI [MIA2],2.46 ± 0.19,2.48 ± 0.19
PGRDRVGREDEDGWETRGDRKARK [HES6],5.49 ± 0.26,5.48 ± 0.17
FSLEQQLDDEDDDEEDCPNPEEYN [SRPK2],5.61 ± 0.27,5.71 ± 0.13
RLGPYVLLEPEEGGRAYQALHCPT [TRIB3],2.69 ± 0.1,2.87 ± 0.38
DSAVENLLLLSKAKLVPSEREASP [IKZF1],4.15 ± 0.23,4.59 ± 0.14
SNNKKNDEMQEVPNRVLAPEQSLK [SPANXN3],5.27 ± 0.16,5.36 ± 0.17
LQRQAEQNPTASYYNVVLLRYQFS [FCHO1],2.23 ± 0.4,2.28 ± 0.34
PKQSGSFRYLQGMLEAGEGGDWPG [PDLIM4],3.79 ± 0.34,3.96 ± 0.15
EISKDNSCKENCTCSSCLLRAPTI [EDARADD],4.67 ± 0.29,4.86 ± 0.14
ECLKKFNARRKLKGAILTTMLATR [CAMK2B],2.98 ± 0.32,2.94 ± 0.29
